Results: article PMC5959871, “Bacterial encapsulins as orthogonal compartments for mammalian cell engineering” (Nature Communications, 2018)

B1: Encapsulin cargo protein B, non-tagged, from the multi-gene construct BCDP2A (natural protein, Myxococcus xanthus, UniProt Q1D6H3 1-158, looked up)
chain: MAGPPDSDLDDVARIRLVLARELETINEYEAYARASSNPEVRAFFQHLAAEEKEHVSEAVHMLRMLDSGQNDHFAKPFVPGHFQAAEAPAPATVHVPTPDGPAFSVNGRNGRLPSEPPTSLPPQRLLYGLPAPPPAVESHPLTVGSLRRGGGGSGSGR
notes: MxEncB, ferritin-like native cargo protein of Myxococcus xanthus encapsulin, expressed from a single reading frame with C and D separated by P2A peptides; P2A skipping probably leaves residues of the P2A peptide on the proteins; also called MxEncB; EncB
B2: Encapsulin cargo protein C, non-tagged, from the multi-gene construct BCDP2A (natural protein, Myxococcus xanthus, UniProt Q1D3Y8 1-130, looked up)
chain: MPQTNPFHSLVPRKMTDTELARSIRLNIEAELDAINLYAAHIDATDNEDAKAILQHVMDEEREHAALFWELIARLDPEQAAHAKEAVEKYRLITSGASHEAVEAVGKEGAAPSPADVTPEKRLTVGSLRR
notes: MxEncC, ferritin-like native cargo protein of Myxococcus xanthus encapsulin, expressed from a single reading frame with B and D separated by P2A peptides; P2A skipping probably leaves residues of the P2A peptide on the proteins; also called MxEncC; EncC
B3: Encapsulin cargo protein D, non-tagged, from the multi-gene construct BCDP2A (natural protein, Myxococcus xanthus, UniProt Q1D9P3 1-109, looked up)
chain: MAKNSNPSAFDRDFGYLMPFLDRVAAAASDLEDASARAELTRLMVEEKARWQRIQELLGGAGGRGAAAPTPAREAPAEAPRLARGSADELHEAAPFATGLTVGSLRGSR
notes: MxEncD, native cargo protein of Myxococcus xanthus encapsulin, expressed from a single reading frame with B and C separated by P2A peptides; P2A skipping probably leaves residues of the P2A peptide on the proteins; also called MxEncD; EncD

The binders below were run against T1, MxEncA^FLAG, encapsulin shell protein A from Myxococcus xanthus with C-terminal FLAG tag (Myxococcus xanthus, UniProt Q1D6H4 1-287) (assay: native gel or EMSA; Blue Native PAGE (NativePAGE 3-12% Bis-Tris) of material eluted from the anti-FLAG Co-IP or the Strep-Tactin purification; Coomassie or silver stain). Settings: both partners purified.
T1 construct: MxEncA, encapsulin shell protein of Myxococcus xanthus, mammalian codon-optimized synthetic gene; A^FLAG printed as 32.9 kDa; Assembles into shells of 60 (T = 1) or 180 (T = 3) subunits; also called nanoshell; source: also purified by anti-FLAG beads and FLAG-peptide elution; not shown: FLAG, C-terminal, kept

Binding result, binds:
B1
B2
B3
